Patent publication US20140072582A1

Molecular target: complement component C1q human serum (Sigma Cat#:C1740-0.5MG) (human) (UniProt P02745)
Assay: ELISA, C1q coated on the plate

Chain of UniProt P02745 (P02745 23-245 limits assumed, chain 1 of 3): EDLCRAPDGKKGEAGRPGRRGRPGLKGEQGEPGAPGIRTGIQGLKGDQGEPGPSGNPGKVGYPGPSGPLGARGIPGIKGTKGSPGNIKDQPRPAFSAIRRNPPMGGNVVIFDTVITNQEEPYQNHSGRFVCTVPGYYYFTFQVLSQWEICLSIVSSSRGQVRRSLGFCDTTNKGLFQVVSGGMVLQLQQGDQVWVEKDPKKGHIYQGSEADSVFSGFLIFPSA
Chain of UniProt P02745 (P02746 28-253 limits assumed, chain 2 of 3, further chain): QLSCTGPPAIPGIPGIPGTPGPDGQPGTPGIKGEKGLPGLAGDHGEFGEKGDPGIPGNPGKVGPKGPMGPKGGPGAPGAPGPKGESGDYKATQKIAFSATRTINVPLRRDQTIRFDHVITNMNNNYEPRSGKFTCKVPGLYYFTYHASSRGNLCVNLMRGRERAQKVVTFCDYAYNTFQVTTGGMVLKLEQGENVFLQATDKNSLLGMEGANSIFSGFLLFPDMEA
Chain of UniProt P02745 (P02747 29-245 limits assumed, chain 3 of 3, further chain): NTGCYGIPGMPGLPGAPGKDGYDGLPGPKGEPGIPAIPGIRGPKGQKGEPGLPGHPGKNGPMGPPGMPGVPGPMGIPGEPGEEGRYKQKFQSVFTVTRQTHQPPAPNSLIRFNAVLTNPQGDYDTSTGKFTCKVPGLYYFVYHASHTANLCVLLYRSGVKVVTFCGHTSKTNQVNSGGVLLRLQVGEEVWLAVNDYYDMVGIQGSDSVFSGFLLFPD

EC50 [µg/mL] | Substance
34.5 | GB4500 (Rituximab), anti-CD20 monoclonal antibody
202 | GB7500 (Adalimumab), anti-TNF monoclonal antibody
